Article PMC4703387, “Identification of the Calmodulin-Binding Domains of Fas Death Receptor” (PLoS ONE, 2016)

Biological target: T1, calmodulin, calcium-bound (Ca2+/CaM) (UniProt P0DP23 1-149)
T1 construct: all experiments in the presence of calcium; Used unlabelled or 15N/13C-labelled; also called full-length Ca^2+/CaM
Assay: NMR titration; 2D 1H-15N HSQC; unlabelled peptide titrated into 15N-labelled Ca2+/CaM, Ca2+/CaM-N or Ca2+/CaM-C (100-150 uM), 35°C, 50 mM Tris-d11 pH 7.0, 100 mM NaCl, 5 mM CaCl2; Kd by one-site fit of chemical shift changes
Settings: both partners purified

binding result: binds
B1: FasDD(224-238) peptide (peptide)
peptide: MTLSQVKGFVRKNGV
notes: also called FasDD(228–238); source: synthetic peptide, bought: Genscript (>95% purity)
